Molecular target: HA-APP (full-length, APP695 spliced isoform), P05067
Assay: ELISA

- Kd: 84.7 nM
B1: MDGA1-Fc (MDGA1 extracellular domains fused to human Fc) (Fc fusion)
chain: QGVYAPAQAQIVHAGQACVVKEDNISERVYTIRESDTLVLQCLVTGHPRPQVRWTKTAGSASDKFQETSVFNETLRIERIARTQGGRYYCKAENGVGVPAIKSIRVDVQYLDEPVLTVHQTVSDVRGNFYQEKTVFLRCTVSSNPPARFIWKRGSDTLSHSQDNGVDIYEPLYTQGETKVLKLKNLRPQDYASYTCQVSVRNVCGIPDKSITFQLTNTTAPPTLKLSVNETLVVNPGENVTVQCLLTGGDPLPQLHWSHGPGPLPLGALAQGGTLSIPSVQARDSGYYNCTATNNVGNPAKKTVNLLVRSLKNATFQITPDMIKESENIQLGQDLKLSCHVDAVPQEKVNYQWFKNGKPARTSKRLLVTRNDPELPAVTSSLELIDLHFSDYGTYLCVASFPGSPVPDLSVEVNISSETVPPTISVPKGRAVVTVREGSPAELQCEVRGKPRPPVLWSRVDKEAALLPSGLALEETPDGKLRVERVSREMSGTYRCQTARYNGFNVRAREAQVQLTVHFPPEVEPSSQDVRQALGRPVLLRCSLLRGSPQRIASAVWRFKGQLLPPPPVLPAAAAEGPDHAELRLDALTRDSSGNYECSVSNDVGSATCLFQVSAKAYSPEFYFDTPNPTRSHKLSKNYSYVLQWTQREPDAVDPVLNYRLSIRQLNQHNAMVKAIPVRRVEKGQLLEYTLTDLRVPHSYEIHLTPYTTFGAGDMASRVIHYTEPINSPSLSDNTCHFEDEKICGYTQDLTDNFDWTRQNALTQNPKRSPNTGPPTDISGTPEGYYMFIETSRPRELGDRARLVSPLYNASAKFYCVSFFYHMYGKHIGSLNLLVRSRNKGTLDTHAWSLSGNKGNVWQQAHVPINPSGPFQIIFEGVRGSGYLGDIAIDDVTLKKGECPRRQMDPNKVVVMPGS
modifications: not checked

Source: article PMC8795569
